Data as given in patent US7704703B2, “Arf and Hdm2 interaction domains and the methods of use thereof” (St. Jude Children's Research Hospital, Inc., priority 2002, dated 2010).

T1: GFP-p19^Arf (Mus musculus, UniProt Q64364)
T1 construct: expressed in transfected cells; host or cells: NIH 3T3 Arf-/- cells
T1 sequence (Q64364 1-169): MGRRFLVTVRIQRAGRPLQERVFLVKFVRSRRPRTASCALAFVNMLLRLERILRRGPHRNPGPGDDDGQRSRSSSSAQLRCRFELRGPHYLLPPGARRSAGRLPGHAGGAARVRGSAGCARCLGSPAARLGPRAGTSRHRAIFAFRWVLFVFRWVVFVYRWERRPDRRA

T2: mArfN37 (Mus musculus, UniProt Q64364)
T2 construct: mouse p19^Arf corresponding to residues 1-37 (mArfN37); made in house; host or cells: E. coli BL21(DE3) (purified 'in a similar manner' to the Hdm2 fragments)
T2 sequence (Q64364 1-37 limits assumed): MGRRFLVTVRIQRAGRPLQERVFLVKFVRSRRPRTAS


Experiments:
[1] = target: T1, GFP-p19^Arf; assay: Microinjection and live cell imaging of Texas Red labeled Hdm2 constructs in NIH 3T3 cells lacking Arf; format: cell-based; settings: transfected with GFP-p19^Arf
Procedure: Fluorescent labeling. Proteins for fluorescence microimaging studies were covalently modified using an amine-reactive, sulfosuccinimidyl ester of TEXAS RED® (C31H29S2N2O6Cl1) (Molecular Probes, Inc., Cat. # C-1171). In brief, purified Hdm2-derived proteins were dialyzed into 100 mM sodium bicarbonate buffer, pH 8.3 at 2-4 mg/ml. The Texas Red™ dye was dissolved in dimethylsulfoxide at 10 mg/ml. Protein and dye 3:1 (vol:vol) were reacted for 1 hour at room temperature followed by purification using size-exclusion chromatography (NAP 5 G-25 columns, Amersham Pharmacia Biotech, Inc.). […]
Cell culture and microinjection. […] GFP-Arf positive cells were then located and co-injected with TEXAS RED® (C31H29S2N2O6C1 labeled Hdm2 polypeptides (2 mg/ml in 20 mM Tris-HCl, 100 mM NaCl, pH 7.0) using a Micromanipulator 5171/Transjector 5246 (Eppendorf, AG) in media supplemented with 10 mM HEPES, pH 7.2 to buffer cell media during injection and imaging. Representative cells were imaged over time. An Axiovert 135 TV inverted fluorescence microscope with an automated stage controller (Carl Zeiss, Inc.) and circulating water bath heater (Fisher) was used for both microinjection and imaging. Images were acquired with a Zeiss 40×NA=1.30 oil objective and MicroMax CCD camera (Princeton Instruments Inc.) operated with MetaMorph Version 4.01 imaging software. […]

[2] = target: T2, mArfN37; assay: Surface plasmon resonance: Hdm2 fragments and peptides binding to immobilized His-tagged mArfN37; settings: Hdm2 protein fragments as analyte; no binding to control surface
Procedure: Surface Plasmon Resonance. Binding studies were performed using a Biacore 3000 surface plasmon resonance (SPR) instrument (Biacore, Inc.). A Tetra-His™ Antibody (Qiagen, Inc.; Cat. #34670) was covalently attached to a carboxymethylated gold surface (C-1 chip; Biacore, Inc.). The carboxymethyl groups on the surface were activated with N-ethyl-N′-(3-dimethylaminopropyl) carbodiimide (EDC) and N-hydroxysuccinimide (NHS) and the antibody was attached at pH 7.4 in 20 mM sodium phosphate buffer, 150 mM NaCl (PBS). Reactive sites remaining on the surface were blocked by reaction with ethanolamine. […] Binding was measured by flowing the non-His-tagged analyte through the reference and ligand-containing flow cells in sequence. […] Changes in the SPR response due to solvent differences and the injection process were monitored by injection of HBS-N buffer alone. […]
Small segments of Arf and Hdm2 participate in Arf/Hdm2 interactions. […] However, because mArfN37 is a relatively small polypeptide, it was determined whether it could bind a correspondingly small segment of Hdm2. To test this hypothesis and to monitor Arf/Hdm2 binding reactions quantitatively, Hdm2 constructs were prepared spanning amino acids 210-304 of SEQ ID NO:8 and 210-275 of SEQ ID NO:8 and then it was determined whether they could bind mArfN37 using surface plasmon resonance (SPR). […]

| Molecule | localization after nuclear microinjection in the presence of GFP-p19^Arf [1] | binding of Hdm2 fragment to His-tagged mArfN37 immobilized on SPR biosensor surface [2] |
| --- | --- | --- |
| Hdm2 210-275: fragment of Hdm2 corresponding to residues 210-275 of SEQ ID NO:8 (protein, listed as Homo sapiens) SSSSESTGTPSNPDLDAGVSEHSGDWLDQDSVSDQFSVEFEVESLDSEDYSLSEEGQELSDEDDEV | nucleolar localization | bind tightly |
| Hdm2 277-350: Texas Red labeled Hdm2 deletion construct containing residues 277-350 (protein) QVTVYQAGESDTDSFEEDPEISLADYWKCTSCNEMNPPLPSHCNRCWALRENWLPEDKGKDKGEISEKAKLENS | localized in the nucleoplasm rather than in nucleoli | – |
